# Reference: PMC4747798
# Biological target: SH2 domain (143-249) of CSRC (UniProt P12931)
# Assay: ITC
substance,measurement,value
human calmodulin (from UniProt P0DP23 1-149) (natural protein),stoichiometry N,1
